Source: paper PMC5636811, “High-fidelity DNA replication in Mycobacterium tuberculosis relies on a trinuclear zinc center”

Target: DnaE1 (replicative DNA polymerase);β-clamp (Mycobacterium …, UniProt P9WNT7;P9WNU1 1-1184;1-402, |)
Assay: cryo-EM 2D class average
Conditions: protein: recombinant;recombinant; tags: His tag cleaved with HRV 3C protease;; copies: 1;2

DnaE1 (replicative DNA polymerase);β-clamp, sequence (P9WNT7 whole entry, chain 1 of 2): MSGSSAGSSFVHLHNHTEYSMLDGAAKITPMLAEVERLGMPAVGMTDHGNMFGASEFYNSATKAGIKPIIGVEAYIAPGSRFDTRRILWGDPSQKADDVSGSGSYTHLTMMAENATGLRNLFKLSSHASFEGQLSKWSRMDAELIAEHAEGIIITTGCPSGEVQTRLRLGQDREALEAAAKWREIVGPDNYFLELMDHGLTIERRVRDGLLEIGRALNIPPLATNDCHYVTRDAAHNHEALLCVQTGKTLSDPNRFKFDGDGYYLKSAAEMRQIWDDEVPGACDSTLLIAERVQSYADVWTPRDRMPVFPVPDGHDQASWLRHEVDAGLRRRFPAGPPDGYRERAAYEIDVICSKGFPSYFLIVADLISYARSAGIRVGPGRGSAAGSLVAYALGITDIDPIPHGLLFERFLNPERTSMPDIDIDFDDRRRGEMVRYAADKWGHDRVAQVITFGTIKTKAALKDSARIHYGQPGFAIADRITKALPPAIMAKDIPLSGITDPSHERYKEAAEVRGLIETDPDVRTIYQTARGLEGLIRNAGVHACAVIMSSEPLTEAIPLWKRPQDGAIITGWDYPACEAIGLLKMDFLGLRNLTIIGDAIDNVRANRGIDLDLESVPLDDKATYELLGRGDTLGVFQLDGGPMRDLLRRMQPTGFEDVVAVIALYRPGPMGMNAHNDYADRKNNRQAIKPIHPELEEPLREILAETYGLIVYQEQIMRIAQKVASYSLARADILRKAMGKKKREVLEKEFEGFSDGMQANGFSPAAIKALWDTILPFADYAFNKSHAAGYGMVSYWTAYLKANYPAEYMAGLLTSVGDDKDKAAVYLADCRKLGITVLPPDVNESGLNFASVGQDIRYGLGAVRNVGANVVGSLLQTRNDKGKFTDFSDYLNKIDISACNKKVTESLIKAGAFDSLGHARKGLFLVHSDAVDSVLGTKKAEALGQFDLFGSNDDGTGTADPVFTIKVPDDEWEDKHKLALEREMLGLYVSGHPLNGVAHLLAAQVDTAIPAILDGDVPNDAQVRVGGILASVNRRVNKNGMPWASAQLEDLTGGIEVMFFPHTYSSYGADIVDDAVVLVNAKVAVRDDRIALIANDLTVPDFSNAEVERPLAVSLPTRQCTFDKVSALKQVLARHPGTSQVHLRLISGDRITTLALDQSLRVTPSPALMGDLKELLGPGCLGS
DnaE1 (replicative DNA polymerase);β-clamp, sequence (P9WNU1 whole entry, chain 2 of 2): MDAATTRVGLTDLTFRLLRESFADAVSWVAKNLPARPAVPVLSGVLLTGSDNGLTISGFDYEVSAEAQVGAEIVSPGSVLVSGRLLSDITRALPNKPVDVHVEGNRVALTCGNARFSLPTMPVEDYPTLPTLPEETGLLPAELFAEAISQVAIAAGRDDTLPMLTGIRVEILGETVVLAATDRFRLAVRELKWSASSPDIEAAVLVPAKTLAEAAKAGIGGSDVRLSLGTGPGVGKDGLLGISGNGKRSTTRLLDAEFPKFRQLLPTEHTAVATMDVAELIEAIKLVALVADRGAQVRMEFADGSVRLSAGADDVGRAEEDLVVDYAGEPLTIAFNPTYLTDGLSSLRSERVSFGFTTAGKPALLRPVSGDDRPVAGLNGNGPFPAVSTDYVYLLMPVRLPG

B1: mismatched primer-template cryo-EM substrate (dsDNA)
DNA 1: CCCCTCAGGAGTCCTTCGTCCTAGTACTACTCC
DNA 2: GGAGTAGTACTAGGACGAAGGACGT
modifications: phosphorothioate between last two nt of primer (GsT)
  binding result: binds
